Laboratory results: US12644128B2, “Method for producing HSL protein having catalytic activity for 2-oxoglutaric acid-dependently oxidizing 4-HPPD inhibitor” (National Agriculture and Food Research Organization, priority 2017, dated 2026)

B1: SbHSL1 protein: sorghum-derived HSL protein, typically a protein having an amino acid sequence of SEQ ID NO: 22 (protein)
chain: MAGESWKVPTPVKDLAALVEEPPSQFVQREEDRPGSLMLAADMPDPLPIVDLDKMSTADEATKLRSALQTWGLFLATNHGIDVSLMEDLMKASREFFNQPLQERQKYSNLREGTRFQLEGYGSDPVIAQDHILDWSDRLQLKVEPEDERNLAQWPKHPESFRDLLHEYATKTKTVMVKILRAMAKTLELDEEDFIDQIGGRPQAYARFNYYPPCPRPELVLGIKAHSDGPLLTVLLVDREVGGLQIQRENKWFNVPSIPHALVINLGDSLEIMSNGIFKSPVHRVVTNAEKERISLAMLYAVQRDNVLEPAPGLLDEKRPAKYRRITEAHFLEGVKEHFSKGMRMIETLKI
modifications: Sorghum bicolor
B2: ZmHSL2 protein: corn-derived HSL protein, typically a protein having an amino acid sequence of SEQ ID NO: 20 (protein)
chain: MAVESWTVPTPVKDLAALVDEPPSRFVQREEHRPGSLMLAADMPDPLPIVDLNKLSTADEAAKLRSALQTWGLFLATNHGIDASLMEDLMEASREFFHQPLQERQKYSNLREGTRFQLEGYGSDPVVAQDHILDWNDRLQLKVEPEDERSLAQWPKYPESFRDLLHEYASKTKSMRDRILRAMAKILELDEEEFIKQLGASPQAYARFNYYPPCPRPELVLGIKAHSDGPVLTVLLVDREVGGLQVQRENTWFNVPFVPHTLVINLGDSLEIMSNGIFKSPVHRVVTNAEKERISLAMLYAVERDNVLQPAAGLLDEKRPARYRRITEADFLEGVKEHFSKGIRMIETLKI
modifications: Zea mays
B3: HIS1 protein: rice 2-oxoglutarate-dependent dioxygenase, typically a protein having an amino acid sequence of SEQ ID NO: 2 (protein, listed as Oryza sativa)
chain: MADESWRAPAIVQELAAAGVEEPPSRYLLREKDRSDVKLVAAELPEPLPVVDLSRLDGAEEATKLRVALQNWGFFLLTNHGVEASLMDSVMNLSREFFNQPIERKQKFSNLIDGKNFQIQGYGTDRVVTQDQILDWSDRLHLRVEPKEEQDLAFWPDHPESFRDVLNKYASGTKRIRDDIIQAMAKLLELDEDYFLDRLNEAPAFARFNYYPPCPRPDLVFGIRPHSDGTLLTILLVDKDVSGLQVQRDGKWSNVEATPHTLLINLGDTMEVMCNGIFRSPVHRVVTNAEKERISLAMLYSVNDEKDIEPAAGLLDENRPARYRKVSVEEFRAGIFGKFSRGERYIDSLRI
B4: OsHSL2 protein: rice-derived HSL protein, typically a protein having an amino acid sequence of SEQ ID NO: 6 (protein, listed as Oryza sativa)
chain: MADEPWRLPNIVQELAAGVQEPPSRYLQDLAGGDQLAGAEIPEPIPTIDLGRLSGSDGADEAAKLRSALQNWGLFLVSNHGVETSLIDAVIEAAREFFRQPVEEKKKLSNLIDGKRFQIEGYGNDPVQTKDQILDWSDRLHLKVEPECDRNLAFWPTHPKSFRDILHEYTLKIKTVKNDILLALAKLLELDEDCLLNQFSDRAITTARFNYYSPCPRPDLVLGLKPHSDLCALTVLLTDKEVGGLQVLRDGTWYSVPAVRDYSLLINIGVTLEIMTNGTFRAPLHRVVTNAERERMSVAMFYAVDGEKEIEPVAELLGLKQQSARYRGIKGKDLLIGHYEHFSRGGRVVDSLKI

Assays:
Type in all cases: biochemical
[1] = 4-HPPD inhibitor decomposition activity by HPLC, substrate BBC-OH; details: for BBC-OH decomposition activity: cell-free synthesized protein, FeCl2, ascorbic acid, 2-oxoglutarate, 30° C. for 3 hours, HPLC
Source text: (§1) Then, the decomposition reaction of a 4-HPPD inhibitor was examined in the presence of divalent iron ions, 2-oxoglutarate, and molecular oxygen in a test tube by a method described later using the HIS1 protein prepared by this cell-free protein synthesis system.
(§2) Here, in commercially-available wheat germ extracts, dithiothreitol (DTT) is used as a reducing agent and a protein synthesizing reaction liquid also contains DTT. It was confirmed in advance by liquid chromatography that under the coexistence of divalent iron ions and ascorbic acid, which is a stabilizer for the divalent iron ions, DTT generated radical compounds and secondarily affected the enzyme reaction of HIS1 proteins. For this reason, in the present Example, an unreported protein synthesizing reaction system using Tris (2-carboxyethyl) phosphine (TCEP) as a reducing agent instead of DTT was newly constructed, with which the synthesis of HIS1 proteins and the like was conducted to examine the 4-HPPD inhibitor decomposition activity of these. The decomposition activity was analyzed on the reaction liquid of the protein and the 4-HPPD inhibitor using a high-performance liquid chromatography (mobile phase; 0.5% acetic acid water:acetonitrile=65:35, flow rate; 1 mL/min, feeding; isocratic, column; CAPCELL PAK ADME S5).
Then, the amounts of the synthesized proteins obtained in Examples 1 to 4 as described above were estimated as described below, followed by the analysis on the 4-HPPD inhibitor decomposition activities.
Cell-free protein synthesis was conducted without adding [^14C]-Leucine Leucine under the same conditions as those in the estimation of the synthesized amount to estimate the protein concentration of this translation reaction liquid from the above-described estimation. Then, 100 μl of the translation reaction liquid was subjected to buffer exchange to a basic translation buffer (30 mM HEPES-KOH (pH=7.8), 100 mM KOAc) by using the illustra MicroSpin G-25 column (manufactured by GE Healthcare). The amounts of the solution before and after the buffer exchange were measured and the estimated protein concentration was corrected.
An enzyme reaction liquid was prepared by mixing 250 mM of HEPES-KOH (pH 7.0) with a mixture liquid, which contained 0.25 mM of FeCl2, 1.5 mM of ascorbic acid, 1.5 mM of 2-oxoglutarate, and 0.75 mM of a substrate, and a translation reaction liquid, which contained a synthesized enzyme protein, in a proportion of 40% and 60%, respectively. After incubation at 30° C. for 3 hours, 100% methanol in the same amount as the enzyme reaction liquid was added and sufficiently mixed, followed by being left to stand for 5 minutes on ice. This was subjected to centrifuge separation (20, 400 g, 20 minutes, 4° C.) and the supernatant was passed through Cosmonice Filter W (0.45 μm) (manufactured by Nacalai Tesque, Inc.) to obtain a sample for high-performance liquid chromatography. The analysis on the substrate and the product before and after the enzyme reaction was conducted by loading a column_Pro C18 (150×4.6 mm I.D.) (manufactured by YMC Co., Ltd.) on a high-performance liquid chromatography device_ELITE LaChrom L-2000 series (manufactured by Hitachi, Ltd.). Elution was conducted at a flow speed of 1 mL/min and a column temperature of 40° C. under solvent conditions of acetonitrile:water (1% acetic acid)=55:45 or 50:50 (BBC-OH), acetonitrile:water (1% acetic acid)=45:55 (Sulcotrione), acetonitrile:water (1% acetic acid)=45:55 (Mesotrione), acetonitrile:water (1% acetic acid)=55:45 or 50:50 (tefryltrone), and acetonitrile:water (1% acetic acid)=55:45 or 50:50 (Tembotrione), respectively, and the compound was detected at an ultraviolet wavelength of 286 nm.
(§3) Note that the 5-point scale of the decomposition activity in each of FIGS. 12 to 17 is based on a relative value of the degree of decrease in a substrate-derived peak area detected by HPLC where the degree of decrease in the HIS1 protein was designated by 5. […]

[2] = 4-HPPD inhibitor decomposition activity by HPLC, substrate sulcotrione
Source text: as §1
as §2, with “S5). […]” for “S5).”
(§4) Cell-free protein synthesis was conducted without adding [^14C]-Leucine Leucine under the same conditions as those in the estimation of the synthesized amount to estimate the protein concentration of this translation reaction liquid from the above-described estimation. […] The amounts of the solution before and after the buffer exchange were measured and the estimated protein concentration was corrected. […]
as §3

[3] = 4-HPPD inhibitor decomposition activity by HPLC, substrate tefuryltrione
Source text: as §1
as §2, with “S5). […]” for “S5).”
as §4, §3

[4] = cell-free synthesized protein, FeCl2, ascorbic acid, 2-oxoglutarate, 30° C. for 3 hours, HPLC

| Molecule | BBC-OH decomposition activity [1] | sulcotrione decomposition activity [2, 4] | modification product of sulcotrione by mass analysis ([2]; mass analysis) | modification product of BBC-OH by mass analysis ([1]; mass analysis) | cofactor dependence of the modification of BBC-OH ([1]; not shown) | tefuryltrione decomposition activity [3, 4] | modification product of tefuryltrione by mass analysis ([3]; mass analysis) |
| --- | --- | --- | --- | --- | --- | --- | --- |
| B1 | had the decomposition activity, which was less effective than that of the HIS1 protein | – | – | – | – | – | – |
| B2 | had the decomposition activity, which was less effective than that of the HIS1 protein | – | – | – | – | – | – |
| B3 | high decomposition activity | high decomposition activity | converted into a product with one oxygen atom added | converted into a product with one oxygen atom added | only in the presence of divalent iron ions and 2-oxoglutarate | high decomposition activity | converted into a product with one oxygen atom added |
| B4 | only very weak decomposition activity | – | – | – | – | – | – |
